Test results reported in patent US9125896B2.
Positions count from the first letter of the chain named.

Assays:
[1] = molecular target: human epidermal growth factor receptor (EGFR) (human) (UniProt P00533)
[2] = molecular target: human epidermal growth factor receptor (EGFR) (human) (UniProt P00533); remark: listed apart in the source
[3] = molecular target: human epidermal growth factor receptor (EGFR) (human) (UniProt P00533); remark: listed apart in the source

B1: muEGFR-6 (antibody, V domains shown)
VH: QVQLQQSGAELARPGASVKLSCKASGYTFTSYWMQWVKQRPGQGLECIGALYPGDGDARYTQKFKGKATLTADRSSSTAYMQLSSLASEDSAVYYCARYDAPGYAMDYWGQGTSVTVAS
VL: DIQMTQSPSSLSASLGGKVTITCKASQDINNYIAWYQHKPGKGPRLLIHYTSTLHPGIPSRFSGSGSGRDYSFSISNLEPEDIATYYCLQYDNLLYTFGGGTKLEIKR
EC50 (nM), inhibition of basal proliferation of HCC827 cells (WST-8, 5 days) [1]: 0.3 nM | Maximal inhibition (%) of basal proliferation of HCC827 cells [1]: 72% | EC50 (nM), inhibition of basal proliferation of NCI-H292 cells (WST-8, 5 days) [2]: 5.6 nM | Maximal inhibition (%) of basal proliferation of NCI-H292 cells [2]: 65% | EC50 (nM), H292 tumor cell growth inhibition (Example 11, WST-8) [3]: 2.59 nM

B2: muEGFR-7 (antibody, V domains shown)
VH: B1 VH with A50T, L51I, A58T, R59T, R74K, A118S
VL: B1 VL with I33L
EC50 (nM), inhibition of basal proliferation of HCC827 cells (WST-8, 5 days) [1]: 0.03 nM | Maximal inhibition (%) of basal proliferation of HCC827 cells [1]: 72% | EC50 (nM), inhibition of basal proliferation of NCI-H292 cells (WST-8, 5 days) [2]: 0.4 nM | Maximal inhibition (%) of basal proliferation of NCI-H292 cells [2]: 77% | EC50 (nM), H292 tumor cell growth inhibition (Example 11, WST-8) [3]: 0.21 nM
